Test results published in the domain aggregation screens of Martell et al. (2025).

Experiment: soluble fraction after stress (log2 fold change); higher = more stays soluble; pooled small domains, quantitative proteomics
Conditions: stress: pH 4
In short: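 Following acid stress at pH 4, the amount of each small protein domain still soluble was measured in pooled custom libraries by high-throughput quantitative proteomics. Its fold change, on a log2 scale, is higher when more of the domain stayed soluble. This fold change is taken as a measure of aggregation propensity.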

Sequence	soluble fraction (log2)
HMADLSAYAGKEGMTDSVLRPSGKVDIEGHILDAVSRGDFIEKGKRVIVIKAEGSYLVVKKRMP	0.166
HMLLELINLQVKILENEELKIIGKVIDLENEKNNLLVIELLKDQKKVLVPFVKEIVPLIDIKNNFIMINPP	-0.703
HMKRPEPESPEAERRSQRAADWLVRRDRGLTAAEQDEFLQWLAIDPRHGEWFALHRSVVGEFSA	-1.12
HMRPADTAAMLKYLSSGAVKGIGGALAGRIIEAFGDESIKVIEEDPARLATVKGITLKKAKEISEEMQRVN	0.0199
HMPMINLYQRLNLPPTASRAEIEAALAQYRSELSTAEIRGVQEWLLVNEVRHRYDAKLRQEQPSFFI	-0.427
HMLEQISDPEVLSKLADEVLSQQEKMVMDYRKGKTAAFQGLMGQMMKKTKGKGNPAKIQEILAQKL	-0.192
HMMTDAEKTFIFFSHLSSVEDHIAYGDKQFYMSLFWQHENKRELSSSQLYHLERLYNKYSMEEIEKKEEFS	-1.07
HMLQARKFTHIQGYEFEAEFLRTNGEFVELQDPQGRKKWFPISNFIQDDKDFIKEQAGNLSS	-0.903
HMMTDEEFLRIAGYMKQRYGIDLGQKKVIMNGRLENHIKSGGWSSFHAFMNDLEKDSSGKLEKELVNLLTT	-0.367
HMSSVVARRARIATLVVETSVASQEELGRLLADEGITVTQATLSRDLDALGAVKVLSADGGTRYRIPGQ	-0.45
HMAPFSGVEPREWDSLVERGRQSGEVHAEDVTHVLRHVELTGDVLTDVQSKMAEHGITIDDA	-0.0344
HMRTLGADLRALRKARGLTLAGMADNMGKSVGWMSQIERDISEPSISDLRALAKLLDVSVSSLFR	-0.557
HMKKPIYLTIANDIEKKIFNNDYPKNERLPSERNLAEEYGVTRMTIRNSIEYLVSKGLLEKRLGSGNYVKR	≥ 0.43
HMQSLSDQVFFYLKERIINNEMVPGSIISIEKLTSEFGISNTPVREAIVRLAGLDLVTIHRNKNITVS	-0.707
HMNTISTLEITTKKDIRILDESELLKSKSSKNNIFNYLLASGDFNLLKDKLNEIDEFSDEIISYQLN	-0.356
HMLKASEVLPYVFTDKFFIDDLNLKQDQILGFLEYIDSKLPSQKLLQVSQQFQLIDFLINESKNYKNQ	-0.252
HMRGPTIELLIQKSALYEELDDSENALKEILKAFDRDSLNSDVLNRLVNLLLNDKQIDRAENYNQLLIEK	-0.847
HMQGENDVTIDPKKLTIGDLAKEISKIEDSEELNNILVAEKEGKGRKGAINAITERIENVSGGTG	0.22
HMVEVPYSEFLKELDAGNVKDVYVSNGESQIQFTKKDQKQWNLSYKTGPIPGDDLVKRLQNADVENFT	-0.282

Sequence	soluble fraction (log2)
HMENYGEAITYIHGMIEDSSEKMLAASKALKVNANTLIKFMKDPYSVAAHIRDRIVENLANLEKAVKAI	-0.59
HMAMYYVIGGDGQQYGPIDEATVRGWLGEGRVSAASLSFKTGEAQWIPLRDRPELADVLATA	-0.311
HMDFQTDVFISRFAELKKESGETNKDLQDVFELSLSALINYQTGKRIPDIAFLHKLAQHFGVSADYLLGLS	-0.6
HMGIIYGKNPVLEAISSGTTINKIYAQTSNKEIDSVIKEALKRKIIVVNTDKQKLDKMIDGKNSQGIIASI	0.36
HMKQNSDDGEIRKIIIEILDNNLDNVNKYKSGRTNVLDFFVGQVMKQTRGQANPELTRSILTEELSN	0.00746
HMAATHYEGIKQDGETDDAVIERVLTGLSVTANKDDIFIVKTLIAGTKYSYTAYVYNGNAWAAM	-0.255
HMSQTPDLQQERANLGDNADARIEAVDLWANKFFPEEHADAILQIGQTAKGIEALEFIMSKV	-0.345
HMSEPQEISYSDFIEQVNRNEIRQVEFDGQHEYLTVIRKDTSRFKVIIPAPDPRLLDDLMEHDVEIVGKE	0.0554
HMQPEKELAPLIGQRVSVRLHDGDGGYRDLLGELESPDSIRKKNGEIAFFDPAKIAALRVVV	0.326
HMEMTGAHLRKKIRAKGFTFQQIADAIGESKQNLSQILSTNNIKTGTLERIAAAMGESVSYF	0.167
HMENVIYGINGPVVTVRNSRSFSMMEMVFVGNERLVGEVIGITDKITTIQVYEETTGLRPGEPVYGTGSPM	-0.842
HMAPSIPSGADIRAAREAAGINLRDFARIVDGPGIAIWSRYETGTPIRVKSISPEVWQKVRDFISQHG	0.228
HMSKGKNEVIAYLKAHNDHRLTVAEILDGLKEEGISINRSTIYRNLDKLVENGDILAFKGKDSESAFYQYS	-0.643
HMAREFPGTIIKRGSRGPDVRWIQQHIGVKLVDGVFGRGTERAVKQFQSRRRLKADGIVGRQTWAAIHN	≥ 0.43
HMENYYMPVVAGQSEQDAKSMLNAMKLSLSIQVQEQESDSVAKGLAIGTSPAAGSQIRKGSSVILYISKGA	0.16
HMIDAHTALLAKRLEAKGMLPLTDKSSAEEIYAEFGISKKAFKKALGALYKERLVRIGEDGVVWI	0.0608
HMASRKTERINRLIDVLQHATSRVPASVLSKILGIGERSVRNYVSEVNEQGQFRIDSSSGGYRLVA	-0.0154
HMSDNYYSILGIETDATTDMIKRAYRRLSLELHPDRTKDNPILTEKYKKVNEAYGVLNDNDRKHIYDLQNI	-1.37
HMLSAPMPGTVLEVHVKEGQRVREGQTLVVMEAMKMEHRVQAPRAGVVTKLHYSEGDRVDVGAILVEIG	-1.31
